In paper doi:10.1101/2025.08.25.672209, “Molecular Architecture and Function Mechanism of Tri-heteromeric GluN1-N2-N3A NMDA Receptors” (bioRxiv, 2025):

Tests used:
[1] = molecular target: T1, rat GluN1-1a (residues 1-847), CTD-truncated (rat, UniProt P35439-1); test: cryo-EM structure; GluN1-N2A-N3A (subunits co-expressed and co-purified) incubated with Fabs 4F11 and 2-8C, SEC in digitonin with 1 mM glycine and 1 mM glutamate, pH 8.0; overall resolution 7.7 Å; settings: both partners purified
T1 construct: signal peptide in the construct; rat GluN1-1a, residues 1-847 (CTD-truncated), GenBank NP_058706.1; no tag is stated for GluN1 itself; a T2A remnant may remain on one of the two chains (surmise); source: HEK293S GnTI- cells, baculovirus transduction, co-expressed with GluN2A and GluN3A; purified as receptor complex (Strep-Tactin, Ni resin, SEC)

[2] = molecular target: T2, GluN1-N3A di-heteromeric NMDA receptor (rat, CTD-truncated; fraction of the same preparation) (rat, UniProt P35439-1;Q9R1M7-1); test: SEC; fluorescence-detection size-exclusion chromatography (FSEC); receptors preincubated with N1-Fab 4F11, N2A-Fab 28C or both; shift of the elution peak; settings: both partners purified
T2 construct: signal peptide in the construct; rat GluN1-1a, residues 1-847, as m1; rat GluN3A, residues 1-965, as m3; also called GluN1-N3A di-NMDARs; source: HEK293S GnTI- cells, baculovirus transduction; copies: 2 + 2

B1: N1-Fab 4F11 (Fab of the anti-GluN1 monoclonal antibody clone 4F11) (Fab, V domains shown)
VH: DVQLQESGPGLVKPSQSLSLTCTVTGYSITSDYAWNWIRQFPGNKLEWMGYISYSGSTGYNPSLKSRISITRDTSKNQFFLQLNSVTTEDTATYYCARLYYGFYGMDYWGQGTSVTVSS
VL: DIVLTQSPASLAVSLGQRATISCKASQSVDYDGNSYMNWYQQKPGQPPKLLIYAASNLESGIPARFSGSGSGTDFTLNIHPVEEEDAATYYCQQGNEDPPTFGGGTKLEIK
notes: Raised against CTD-truncated human GluN1-N2A receptors; also called Fab-N1_(4F11); source: hybridoma monoclonal antibody, papain digestion, Fc removed with protein-A agarose, purified by SEC
binding result [1]: binds
binding result [2]: binds
